Earlier results on 4 substances are cited in PMC3509699.

Data set [1] concerns the target KV1.3 (Homo sapiens) (UniProt P22001).
In data set [2] the target is KCa3.1 (Homo sapiens) (UniProt O15554).
Data set [3] shares this target. The source holds these as a separate data set.
Data set [4] deals with KV1.3 (Homo sapiens) (UniProt P22001). This is another data set of the same source.

pKd: −log10 of the molar value. Like-named read-outs stand apart in the source and are kept apart here.

Sequence of UniProt O15554 (O15554 whole entry): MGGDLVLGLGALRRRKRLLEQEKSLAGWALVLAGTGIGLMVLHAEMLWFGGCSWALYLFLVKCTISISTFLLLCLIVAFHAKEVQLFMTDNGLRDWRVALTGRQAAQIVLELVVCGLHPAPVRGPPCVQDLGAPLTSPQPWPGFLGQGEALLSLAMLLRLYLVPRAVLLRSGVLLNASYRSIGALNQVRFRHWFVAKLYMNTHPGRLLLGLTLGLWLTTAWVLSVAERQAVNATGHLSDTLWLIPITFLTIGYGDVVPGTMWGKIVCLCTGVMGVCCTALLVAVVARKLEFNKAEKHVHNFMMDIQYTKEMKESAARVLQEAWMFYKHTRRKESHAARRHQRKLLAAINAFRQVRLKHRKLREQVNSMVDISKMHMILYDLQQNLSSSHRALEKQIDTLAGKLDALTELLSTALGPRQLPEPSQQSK
Sequence of UniProt P22001 (P22001 whole entry): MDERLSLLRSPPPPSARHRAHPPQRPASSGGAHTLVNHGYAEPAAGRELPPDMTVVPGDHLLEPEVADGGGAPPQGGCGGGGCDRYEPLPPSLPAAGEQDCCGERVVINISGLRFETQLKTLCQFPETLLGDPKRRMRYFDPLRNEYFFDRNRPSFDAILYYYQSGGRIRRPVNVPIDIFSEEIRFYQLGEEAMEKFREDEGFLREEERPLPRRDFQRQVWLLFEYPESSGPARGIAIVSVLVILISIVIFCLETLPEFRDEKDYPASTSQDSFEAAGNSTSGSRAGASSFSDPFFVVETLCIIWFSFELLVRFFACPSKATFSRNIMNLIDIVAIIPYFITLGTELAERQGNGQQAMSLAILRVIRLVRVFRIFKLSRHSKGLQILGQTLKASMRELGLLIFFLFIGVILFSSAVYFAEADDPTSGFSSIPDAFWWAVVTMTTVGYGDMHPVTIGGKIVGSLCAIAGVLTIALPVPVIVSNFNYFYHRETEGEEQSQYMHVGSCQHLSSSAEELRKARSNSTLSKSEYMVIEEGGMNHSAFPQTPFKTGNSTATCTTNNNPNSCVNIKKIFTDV

A word on the pKd: it is the negative decadic logarithm of the Kd, by convention in mol/L. As to BmKTX (from UniProt Q9NII7), the pKd with KV1.3 (Homo sapiens) [1] is 9.70.
Maurotoxin (MTX) (from UniProt P80719): the pKd with KCa3.1 (Homo sapiens) [2] is 9.00.
Regarding “Charybdotoxin (ChTx) (from UniProt P13487)”, the pKd with KCa3.1 (Homo sapiens) [3] was 8.30.
For the substance Margatoxin (from UniProt P40755), the negative-log Kd (pKd) in the data set with KV1.3 (Homo sapiens) [4] is 9.96.
